Reference: US20200165325A1
Where two headings read alike, the source gives them in different places.

Key:
[1] = target: Env (gp120) of HIV-1 strain TRO.11 (HIV-1)
[2] = target: Env (gp120) of HIV-1 strain CAP45.2.00.G3 (HIV-1)
[3] = target: Env (gp120) of HIV-1 strain CAP210.2.00.E8 (HIV-1)
[4] = target: Env (gp120) of HIV-1 strain T257-31 (HIV-1)
[5] = target: Env (gp120) of HIV-1 strain X2131_C1_B5 (HIV-1)
[6] = target: Env (gp120) of HIV-1 strain CNE53 (HIV-1)
[7] = target: Env (gp120) of HIV-1 strain 1056_10_TA11_1826 (HIV-1)
[8] = target: Env (gp120) of HIV-1 strain Du422.1 (HIV-1)
[9] = target: Env (gp120) of HIV-1 strain ZM197M.PB7 (HIV-1)
[10] = target: Env (gp120) of HIV-1 strain 3301.v1.c24 (HIV-1)
[11] = target: Env (gp120) of HIV-1 strain X1254_c3 (HIV-1)
[12] = target: Env (gp120) of HIV-1 strain 703357.C02 (HIV-1)
[13] = target: Env (gp120) of HIV-1 strain Ce0682_E4 (HIV-1)
[14] = target: Env (gp120) of HIV-1 strain 231966.c02 (HIV-1)
[15] = target: Env (gp120) of HIV-1 strain 620345.c01 (HIV-1)
[16] = target: Env (gp120) of HIV-1 strain WEAU_d15_410_787 (HIV-1)
[17] = target: Env (gp120) of HIV-1 strain 6480.v4.c25 (HIV-1)
[18] = target: Env (gp120) of HIV-1 strain CNE58 (HIV-1)
[19] = target: Env (gp120) of HIV-1 strain SC422661.8 (HIV-1)
[20] = target: Env (gp120) of HIV-1 strain 3103.v3.c10 (HIV-1)
[21] = target: Env (gp120) of HIV-1 strain P1981_C5_3 (HIV-1)
[22] = target: Env (gp120) of HIV-1 strain CNE21 (HIV-1)
[23] = target: Env (gp120) of HIV-1 strain Du172.17 (HIV-1)
[24] = target: Env (gp120) of HIV-1 strain REJO4541.67 (HIV-1)
[25] = target: Env (gp120) of HIV-1 strain Ce1176_A3 (HIV-1)
[26] = target: Env (gp120) of HIV-1 strain ZM233M.PB6 (HIV-1)
[27] = target: Env (gp120) of HIV-1 strain AC10.0.29 (HIV-1)
[28] = target: Env (gp120) of HIV-1 strain SC422661.8 (HIV-1); remark: listed apart in the source

Substance | neutralization IC50 [1] | neutralization IC50 [2] | neutralization IC50 [3] | neutralization IC50 [4] | neutralization IC50 [5] | neutralization IC50 [6] | neutralization IC50 [7] | neutralization IC50 [8] | neutralization IC50 [9] | neutralization IC50 [10] | neutralization IC50 [11] | neutralization IC50 [12] | neutralization IC50 [13] | neutralization IC50 [14] | neutralization IC50 [15] | neutralization IC50 [16] | neutralization IC50 [17] | neutralization IC50 [18] | neutralization IC50 [19] | neutralization IC50 [20] | further results
NIH45-46 IgG (antibody) | 1 µg/mL | > 50 µg/mL | > 50 µg/mL | 0.49 µg/mL | 0.23 µg/mL | 8 ng/mL | 0.094 µg/mL | > 50 µg/mL | 0.15 µg/mL | 9 ng/mL | 0.032 µg/mL | 19.2 µg/mL | 0.054 µg/mL | 1.64 µg/mL | > 50 µg/mL | 5 ng/mL | 0.032 µg/mL | 0.43 µg/mL | 0.06 µg/mL | 1.77 µg/mL | neutralization IC50 [21]: 0.08 µg/mL; neutralization IC50 [22]: 6.01 µg/mL; neutralization IC50 [23]: > 50 µg/mL; neutralization IC50 [24]: 14 ng/mL; neutralization IC50 [25]: 0.93 µg/mL; neutralization IC50 [26]: 2.5 µg/mL
NIH45-46^G54F IgG (antibody) | 0.08 µg/mL | > 50 µg/mL | > 50 µg/mL | 0.17 µg/mL | 0.1 µg/mL | 5 ng/mL | 0.064 µg/mL | > 50 µg/mL | 0.09 µg/mL | 1 ng/mL | 0.011 µg/mL | 7.91 µg/mL | 0.011 µg/mL | 0.06 µg/mL | > 50 µg/mL | < 1 ng/mL | 0.014 µg/mL | 0.04 µg/mL | 0.04 µg/mL | 0.37 µg/mL | neutralization IC50 [27]: 0.3 µg/mL; neutralization IC50 [28]: 0.02 µg/mL; neutralization IC50 [21]: 0.03 µg/mL; neutralization IC50 [22]: 0.12 µg/mL; neutralization IC50 [23]: > 50 µg/mL; neutralization IC50 [24]: 7 ng/mL; neutralization IC50 [25]: 0.24 µg/mL; neutralization IC50 [26]: 0.22 µg/mL
NIH45-46^G54W IgG (antibody) | 0.09 µg/mL | 6.6 µg/mL | 41 µg/mL | 0.13 µg/mL | 0.05 µg/mL | < 1 ng/mL | 0.024 µg/mL | > 50 µg/mL | 0.04 µg/mL | < 1 ng/mL | 0.002 µg/mL | 3.43 µg/mL | 0.01 µg/mL | 0.02 µg/mL | > 50 µg/mL | < 1 ng/mL | 0.004 µg/mL | 0.02 µg/mL | 0.02 µg/mL | 0.2 µg/mL | neutralization IC50 [27]: 0.2 µg/mL; neutralization IC50 [28]: 0.03 µg/mL; neutralization IC50 [21]: 0.02 µg/mL; neutralization IC50 [22]: 0.03 µg/mL; neutralization IC50 [23]: 3.65 µg/mL; neutralization IC50 [24]: 2 ng/mL; neutralization IC50 [25]: 0.16 µg/mL; neutralization IC50 [26]: 0.02 µg/mL
NIH45-46^G54Y IgG (antibody) | 0.1 µg/mL | 45 µg/mL | > 50 µg/mL | 0.18 µg/mL | 0.1 µg/mL | 6 ng/mL | 0.044 µg/mL | > 50 µg/mL | 0.07 µg/mL | 3 ng/mL | 0.013 µg/mL | 5.6 µg/mL | 0.017 µg/mL | 0.06 µg/mL | > 50 µg/mL | 2 ng/mL | 0.018 µg/mL | 0.04 µg/mL | 0.04 µg/mL | 0.3 µg/mL | neutralization IC50 [27]: 0.4 µg/mL; neutralization IC50 [28]: 0.06 µg/mL; neutralization IC50 [21]: 0.04 µg/mL; neutralization IC50 [22]: 0.07 µg/mL; neutralization IC50 [23]: > 50 µg/mL; neutralization IC50 [24]: 7 ng/mL; neutralization IC50 [25]: 0.21 µg/mL; neutralization IC50 [26]: 0.16 µg/mL
